Laboratory results reported in patent publication US20210205286A1.

Legend:
[1] = target: USP7 (endogenous) (UniProt Q93009); assay: APEX2-Gal9 proximity biotinylation, SILAC LC-MS/MS, LLOMe; second of three experiments
[2] = target: USP7 (endogenous) (UniProt Q93009); assay: APEX2-Gal9 proximity biotinylation, SILAC LC-MS/MS, GPN; third of three experiments
[3] = target: USP7 (endogenous) (UniProt Q93009); assay: APEX2-Gal9 proximity biotinylation, SILAC LC-MS/MS, GPN; first of three experiments
[4] = target: USP7 (endogenous) (UniProt Q93009); assay: APEX2-Gal9 proximity biotinylation, SILAC LC-MS/MS, LLOMe; third of three experiments
[5] = target: USP7 (endogenous) (UniProt Q93009); assay: APEX2-Gal9 proximity biotinylation, SILAC LC-MS/MS, LLOMe; first of three experiments
[6] = target: USP7 (endogenous) (UniProt Q93009); assay: APEX2-Gal9 proximity biotinylation, SILAC LC-MS/MS, GPN; second of three experiments

USP7 (endogenous), sequence (Q93009 whole entry): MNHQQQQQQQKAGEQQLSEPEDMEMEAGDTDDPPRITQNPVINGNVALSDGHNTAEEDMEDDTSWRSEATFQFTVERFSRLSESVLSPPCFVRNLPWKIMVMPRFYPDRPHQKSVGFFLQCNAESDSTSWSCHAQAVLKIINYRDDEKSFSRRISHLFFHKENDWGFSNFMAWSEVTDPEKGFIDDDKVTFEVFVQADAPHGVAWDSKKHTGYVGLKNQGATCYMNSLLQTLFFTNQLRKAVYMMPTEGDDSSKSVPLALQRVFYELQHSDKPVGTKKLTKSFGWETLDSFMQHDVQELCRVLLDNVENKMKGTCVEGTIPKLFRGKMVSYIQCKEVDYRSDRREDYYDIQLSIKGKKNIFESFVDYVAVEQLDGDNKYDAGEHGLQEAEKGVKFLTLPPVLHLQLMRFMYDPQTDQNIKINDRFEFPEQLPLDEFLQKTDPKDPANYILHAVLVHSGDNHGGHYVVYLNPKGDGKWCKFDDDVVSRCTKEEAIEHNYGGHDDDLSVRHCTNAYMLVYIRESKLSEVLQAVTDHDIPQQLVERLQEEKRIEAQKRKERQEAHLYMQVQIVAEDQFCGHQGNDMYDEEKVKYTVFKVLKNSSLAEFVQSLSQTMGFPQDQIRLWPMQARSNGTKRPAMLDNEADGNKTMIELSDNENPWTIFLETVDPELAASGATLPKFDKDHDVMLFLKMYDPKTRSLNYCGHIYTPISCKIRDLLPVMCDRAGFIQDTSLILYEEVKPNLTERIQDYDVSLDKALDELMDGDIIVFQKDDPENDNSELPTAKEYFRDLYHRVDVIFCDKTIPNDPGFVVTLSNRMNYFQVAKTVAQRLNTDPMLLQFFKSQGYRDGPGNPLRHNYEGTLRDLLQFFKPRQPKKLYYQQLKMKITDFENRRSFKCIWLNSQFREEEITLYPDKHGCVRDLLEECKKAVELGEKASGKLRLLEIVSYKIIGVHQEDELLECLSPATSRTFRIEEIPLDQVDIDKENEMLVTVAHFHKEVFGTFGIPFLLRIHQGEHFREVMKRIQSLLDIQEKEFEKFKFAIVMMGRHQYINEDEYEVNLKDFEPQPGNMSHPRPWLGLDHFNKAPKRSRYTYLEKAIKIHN

peptide counts (peptide counts) [1]: 3 | peptide counts (peptide counts) [2]: 3 | peptide counts (peptide counts) [3]: 3 | peptide counts (peptide counts) [4]: 2 | peptide counts (peptide counts) [5]: 2 | peptide counts (peptide counts) [6]: 4
Substance: APEX2-myc-Gal9 (from UniProt O00182 1-323)
